# From patent US20160060360A1
# Molecular target: recombinant human FcγRIIb protein (R&D Systems) (human) (UniProt P31994)
# Test: SPR (Biacore 3000), antibody captured on protein A/G chip, FcγR injected, 1:1 Langmuir fit
# Sequence of recombinant human FcγRIIb protein (R&D Systems) (human) (P31994 46-217 limits assumed): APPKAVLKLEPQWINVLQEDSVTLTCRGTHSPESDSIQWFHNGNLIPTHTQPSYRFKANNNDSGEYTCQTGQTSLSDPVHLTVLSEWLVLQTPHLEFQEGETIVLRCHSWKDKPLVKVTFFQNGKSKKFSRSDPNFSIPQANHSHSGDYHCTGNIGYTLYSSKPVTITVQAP
row,Substance,Kd [nM]
1,"anti-CD19 antibody HuAM4G7, WT (native) IgG1",1800

# Molecular target: recombinant human FcγRIIb protein (R&D Systems) (human) (UniProt P31994)
# Test: Biacore, 'according to the data herein'
row,Substance,Kd [nM]
1,"anti-CD19 antibody HuAM4G7, WT (native) IgG1",2000

# Molecular target: FcγRIIIaF
# Test: SPR
row,Substance,Kd [nM]
1,L328F,5110

# Molecular target: FcγRIIaR
# Test: SPR
row,Substance,Kd [nM]
1,A327D,536
2,A327G,2690
3,A327N,1410
4,A327Q,1350
5,D265E,2790
6,H268D,205
7,H268E,269
8,H268N,481
9,H268Q,544
10,L328F,166
11,P329E,10000
12,S239D/S267E/L328F,2.06
13,S239E,1250
14,S239N,990
15,S239Q,1010
16,S267A,200

row,Substance,Kd [nM]
1,S267D,95.5
2,S267E,29.1
3,S267E/A327D,51.3
4,S267E/A327E,29.3
5,S267E/H268E,20.6
6,S267E/H268E/L328F,3.4
7,S267E/L328H,185
8,S267E/L328I,11.6
9,S267E/L328Y,7.06
10,S267E/N325L,20.7
11,S267G,517
12,S298D,592
13,V266D,1220
14,V266M,274
15,V266M/S267E,28
